According to article doi:10.1101/373563 (bioRxiv, 2018):

Key:
[1] = molecular target: Facklamia ignava NrdB∆Grx (lacking the Grx domain) (Facklamia ignava); experiment: GEMMA
SEC [2] = molecular target: the molecule itself; experiment: SEC
SEC [3] = molecular target: the molecule itself; experiment: SEC; remark: listed apart in the source
GEMMA = molecular target: the molecule itself; experiment: GEMMA

Facklamia ignava NrdB∆Grx (lacking the Grx domain) (domain or fragment)
stoichiometry N [1]: 4

B1: Facklamia ignava NrdA (natural protein, UniProt K1MC37 1-567, looked up)
chain: MTAQLKNREYEPFYWLTEDSQTFLERGYLREGQDAHSRLREIADRAEEILGIDGFSDKFYTYLGRGYYSLSTPVWTNFGSNRGFPISCFGSTPDDNMASILYTAAEIGMMSKYGGGTSGFFGHLRPRGAAITNNGYSSGAVHFMKLFEQMTDTVSQGSSRRGRFAPYLPIDHPDIDEFLEIGVEGNDIQDLNHAVTVPDDWMREMIQGDREKRATWAKVIQRRVEMGYPYILFTDTINNNKPEWYHDYPITHSNLCSEIMLPDNDHWSFVCNLSSMNVLHYNEWKDTDAVETMIYFLDAVMSEFIEKLEKLRDSDQFEYREAFHFMERAYNFAVENRALGLGVLGWHSLLQSNLIAFESEEASYLNEEIHRTIQERAEKASCELAELFGEPLILKGTGRRNTTTMAIAPTTSSAFIIGQVSQSIEPLFSNYYVKDMSKIKTTIRNRYLVELLEEKGRNTPDVWESIKNHDGSVLHLDFLSDHEKNVFKTFAEINQYEIINQAAVRQRYIDQSQSLNIMINPATTTAKEMNQLYLYAWESGIKSLYYQHSTSAAQAFYRSSVCLACEA
stoichiometry N (SEC [2]): 2

B2: Facklamia ignava NrdB (Grx::ATP-cone::NrdB fusion protein), wild type (natural protein, UniProt K1LAT4 1-496, looked up)
chain: MTQVQVYSKKVCPWCTRLKDWMDKNNIDYEEIDIEVHPEAREYLHSLGLKTVPQVFIDGVHRPHEPLYSNLLHYIHGTSKIPQHVTKRNGDRVDFDPTKIEIAIQKANNETHELNDMEINTVTQKVVEKIDIDPIHVEEIQDLVETELMLQSFPRTAKAYILYRAEQTKARQRDIFKPRKNLKPYEYPELESYKEAIQHSYWLHTEYNYTSDIQDYKINVEPHERTAIRNAMLAISQVEVSVKTFWAKLYDRLPKPELANVGMTFAESEVRHSDAYSHLLELLGLNEIFEEIEQIPALNQRVDYLNSHIKYSQTGSNRDYTISILLFSAFIEHISLFSQFLIIMAFNKQKNLFSGISNVIEATSKEEQLHGEFGIDLINTIKAENPDWFDDELKEEIYTLVKQAYESEKDVLDWIYEDGEIDFMPTQTVLEFIKNRLNNSLEAIGLERIFETDLAEVEKTLWFDEEIVSTKHVDFFAKRSVNYTKRSQSMTADDLF
stoichiometry N (SEC [3]): 4
stoichiometry N (GEMMA): 2
